The record followed here is FireProtDB (doi:10.1016/0022-2836(92)90562-x).

The chains are these.
B1: Ribonuclease, P00648 (parent)
chain: MMKMEGIALKKRLSWISVCLLVLVSAAGMLFSTAAKTETSSHKAHTEAQVINTFDGVADYLQTYHKLPDNYITKSEAQALGWVASKGNLADVAPGKSIGGDIFSNREGKLPGKSGRTWREADINYTSGFRNSDRILYSSDWLIYKTTDHYQTFTKIR

The variants in the data set derive from B1. To be noted: Bacillus amyloliquefaciens; pH 6.3; 25 °C; Urea; Fluorescence; MES-NaOH 450 mM; reversible: yes; structure 1BNI; whole UniProt chain shown.

With MMKMEGIALKKRLSWISVCLLVLVSAAGMLFSTAAKTETSSHKAHTEAQVINTFDGVADYLQTYHKLPDNYITKSEAQALGWVASKGNLADVAPGKSIGGDIFSNREGKLPGKSGRTWREADVNYTSGFRNSDRILYSSDWLIYKTTDHYQTFTKIR [I123V], the “ddG of mutation (higher = less stable)” value was 0.98 kcal/mol, the denaturant m value worked out at 1.89 kcal/mol/M, the “denaturant midpoint (higher = more stable)” value (from here on “denaturant midpoint”) came to 4.1 M and the unfolding free energy came out at 7.84 kcal/mol.

In the case of MMKMEGIALKKRLSWISVCLLVLVSAAGMLFSTAAKTETSSHKAHTEAQVINTFDGVADYLQTYHKLPDNYITKSEAQALGWVASKGNLADVAPGKSIGGDIFSNREGKLPGKSGRTWREADANYTSGFRNSDRILYSSDWLIYKTTDHYQTFTKIR [I123A], the “ddG of mutation (higher = less stable)” value is 1.66 kcal/mol, the denaturant m value is 1.99 kcal/mol/M, the “denaturant midpoint” value was 3.6 M and the unfolding free energy was 7.16 kcal/mol.

Consider MMKMEGIALKKRLSWISVCLLVLVSAAGMLFSTAAKTETSSHKAHTEAQVINTFDGVADYLQTYHKLPDNYITKSEAQALGWVASKGNLADVAPGKSVGGDIFSNREGKLPGKSGRTWREADINYTSGFRNSDRILYSSDWLIYKTTDHYQTFTKIR [I98V], for which the “ddG of mutation (higher = less stable)” value was 1.13 kcal/mol, the denaturant m value was found to be 2.11 kcal/mol/M, the “denaturant midpoint” value came out at 3.6 M and the unfolding free energy came to 7.69 kcal/mol.

As for MMKMEGIALKKRLSWISVCLLVLVSAAGMLFSTAAKTETSSHKAHTEAQVINTFDGVADYLQTYHKLPDNYITKSEAQALGWVASKGNLADVAPGKSAGGDIFSNREGKLPGKSGRTWREADINYTSGFRNSDRILYSSDWLIYKTTDHYQTFTKIR [I98A], the “ddG of mutation (higher = less stable)” value was found to be 4.72 kcal/mol, the denaturant m value stood at 1.9 kcal/mol/M, the “denaturant midpoint” value amounted to 2.1 M and the unfolding free energy turned out to be 4.1 kcal/mol.

As for MMKMEGIALKKRLSWISVCLLVLVSAAGMLFSTAAKTETSSHKAHTEAQVINTFDGVADYLQTYHKLPDNYITKSEAQALGWVASKGNLADVAPGKSIGGDIFSNREGKLPGKSGRTWREADIAYTSGFRNSDRILYSSDWLIYKTTDHYQTFTKIR [N124A], the “ddG of mutation (higher = less stable)” value turned out to be 1.45 kcal/mol, the denaturant m value worked out at 1.98 kcal/mol/M, the “denaturant midpoint” value is 3.7 M and the unfolding free energy was found to be 7.37 kcal/mol.

With MMKMEGIALKKRLSWISVCLLVLVSAAGMLFSTAAKTETSSHKAHTEAQVINTFDGVADYLQTYHKLPDNYITKSEAQALGWVASKGNLADVAPGKSIGGDIFSNREGRLPGKSGRTWREADINYTSGFRNSDRILYSSDWLIYKTTDHYQTFTKIR [K109R], the “ddG of mutation (higher = less stable)” value stood at 0.32 kcal/mol, the denaturant m value worked out at 1.95 kcal/mol/M, the “denaturant midpoint” value stood at 4.3 M and the unfolding free energy is 8.5 kcal/mol.

As for MMKMEGIALKKRLSWISVCLLVLVSAAGMLFSTAAKTETSSHKAHTEAQVINTFDGVADYLQTYHKLPDNYITKSEAQALGWVASKGNLADVAPGKSIGGDVFSNREGKLPGKSGRTWREADINYTSGFRNSDRILYSSDWLIYKTTDHYQTFTKIR [I102V], the “ddG of mutation (higher = less stable)” value was determined as 0.63 kcal/mol, the denaturant m value amounted to 1.85 kcal/mol/M, the “denaturant midpoint” value was determined as 4.4 M and the unfolding free energy came to 8.19 kcal/mol.

In the case of MMKMEGIALKKRLSWISVCLLVLVSAAGMLFSTAAKTETSSHKAHTEAQVINTFDGVADYLQTYHKLPDNYITKSEAQALGWVASKGNLADVAPGKSIGGDTFSNREGKLPGKSGRTWREADINYTSGFRNSDRILYSSDWLIYKTTDHYQTFTKIR [I102T], the “ddG of mutation (higher = less stable)” value amounted to 1.24 kcal/mol, the denaturant m value came to 1.84 kcal/mol/M, the “denaturant midpoint” value was determined as 4.1 M and the unfolding free energy was 7.58 kcal/mol.

Consider MMKMEGIALKKRLSWISVCLLVLVSAAGMLFSTAAKTETSSHKAHTEAQVINTFDGVADYLQTYHKLPDNYITKSEAQALGWVASKGNLADVAPGKSIGGDIFSNREGKLPGKSGRTWREADINYTSGFRASDRILYSSDWLIYKTTDHYQTFTKIR [N131A], for which the “ddG of mutation (higher = less stable)” value was found to be 1.59 kcal/mol, the denaturant m value was 2.04 kcal/mol/M, the “denaturant midpoint” value came out at 3.5 M and the unfolding free energy was determined as 7.23 kcal/mol.

With MMKMEGIALKKRLSWISVCLLVLVSAAGMLFSTAAKTETSSHKAHTEAQVINTFDGVADYLQTYHKLPDNYITKSEAQALGWVASKGNLADVAPGKSIGGNIFSNREGKLPGKSGRTWREADINYTSGFRNSDRILYSSDWLIYKTTDHYQTFTKIR [D101N], the “ddG of mutation (higher = less stable)” value stood at 1.78 kcal/mol, the denaturant m value amounted to 2.11 kcal/mol/M, the “denaturant midpoint” value amounted to 3.3 M and the unfolding free energy was found to be 7.04 kcal/mol.

For MMKMEGIALKKRLSWISVCLLVLVSAAGMLFSTAAKTETSSHKAHTEAQVINTFDGVADYLQTYHKLPDNYITKSEAQALGWVASKGNLADVAPGKSIGGAIFSNREGKLPGKSGRTWREADINYTSGFRNSDRILYSSDWLIYKTTDHYQTFTKIR [D101A], the “ddG of mutation (higher = less stable)” value was 2.86 kcal/mol, the denaturant m value worked out at 1.95 kcal/mol/M, the “denaturant midpoint” value stood at 3 M and the unfolding free energy amounted to 5.96 kcal/mol.

Regarding MMKMEGIALKKRLSWISVCLLVLVSAAGMLFSTAAKTETSSHKAHTEAQVINTFDGVADYLQTYHKLPDNYITKSEAQALGWVASKGNLADVAPGKSIGGDIFSNREGKLPGKSGRTWREADINYTSGFRNSDRALYSSDWLIYKTTDHYQTFTKIR [I135A], the “ddG of mutation (higher = less stable)” value was determined as 4.02 kcal/mol, the denaturant m value worked out at 1.94 kcal/mol/M, the “denaturant midpoint” value was found to be 2.4 M and the unfolding free energy came out at 4.8 kcal/mol.

For MMKMEGIALKKRLSWISVCLLVLVSAAGMLFSTAAKTETSSHKAHTEAQVINTFDGVADYLQTYHKLPDNYITKSEAQALGWVASKGNLADVAPGKSIGGDIFSNREGKLPGKSGRTWREADINYTSGFRNSDRVLYSSDWLIYKTTDHYQTFTKIR [I135V], the “ddG of mutation (higher = less stable)” value came out at 1.64 kcal/mol, the denaturant m value came to 1.85 kcal/mol/M, the “denaturant midpoint” value is 3.8 M and the unfolding free energy stood at 7.18 kcal/mol.

Turning to MMKMEGIALKKRLSWISVCLLVLVSAAGMLFSTAAKTETSSHKAHTEAQVINTFDGVADYLQTYHKLPDNYITKSEAQALGWVASKGNLADVAPGKSIGGDIFSAREGKLPGKSGRTWREADINYTSGFRNSDRILYSSDWLIYKTTDHYQTFTKIR [N105A], the “ddG of mutation (higher = less stable)” value was determined as 2 kcal/mol, the denaturant m value was determined as 1.97 kcal/mol/M, the “denaturant midpoint” value was 3.4 M and the unfolding free energy turned out to be 6.82 kcal/mol.

As to MMKMEGIALKKRLSWISVCLLVLVSAAGMLFSTAAKTETSSHKAHTEAQVINTFDGVADYLQTYHKLPDNYITKSEAQALGWVASKGNLADVAPGKSIGGDIFSDREGKLPGKSGRTWREADINYTSGFRNSDRILYSSDWLIYKTTDHYQTFTKIR [N105D], the “ddG of mutation (higher = less stable)” value was -0.31 kcal/mol, the denaturant m value worked out at 1.9 kcal/mol/M, the “denaturant midpoint” value stood at 4.8 M and the unfolding free energy came to 9.13 kcal/mol.

For MMKMEGIALKKRLSWISVCLLVLVSAAGMLFSTAAKTETSSHKAHTEAQVINTFDGVADYLQTYHKLPDNYITKSEAQALGWVASKGNLADVAPGKSIGGDIFSNREGKLPGKSGRTWREADINFTSGFRNSDRILYSSDWLIYKTTDHYQTFTKIR [Y125F], the “ddG of mutation (higher = less stable)” value was determined as 1.14 kcal/mol, the denaturant m value came out at 1.98 kcal/mol/M, the “denaturant midpoint” value was 3.8 M and the unfolding free energy stood at 7.68 kcal/mol.
